Data: patent US10772928B2, “Modulation and detection of a neuronal alternative splicing regulatory network for treatment and diagnosis of neurological disorders” (The Governing Council of the University of Toronto, priority 2014, dated 2020)

T1: nSR100 (Mus musculus, UniProt Q8BKA3)
T1 construct: host or cells: mouse N2A cells
T1 sequence (Q8BKA3 1-608): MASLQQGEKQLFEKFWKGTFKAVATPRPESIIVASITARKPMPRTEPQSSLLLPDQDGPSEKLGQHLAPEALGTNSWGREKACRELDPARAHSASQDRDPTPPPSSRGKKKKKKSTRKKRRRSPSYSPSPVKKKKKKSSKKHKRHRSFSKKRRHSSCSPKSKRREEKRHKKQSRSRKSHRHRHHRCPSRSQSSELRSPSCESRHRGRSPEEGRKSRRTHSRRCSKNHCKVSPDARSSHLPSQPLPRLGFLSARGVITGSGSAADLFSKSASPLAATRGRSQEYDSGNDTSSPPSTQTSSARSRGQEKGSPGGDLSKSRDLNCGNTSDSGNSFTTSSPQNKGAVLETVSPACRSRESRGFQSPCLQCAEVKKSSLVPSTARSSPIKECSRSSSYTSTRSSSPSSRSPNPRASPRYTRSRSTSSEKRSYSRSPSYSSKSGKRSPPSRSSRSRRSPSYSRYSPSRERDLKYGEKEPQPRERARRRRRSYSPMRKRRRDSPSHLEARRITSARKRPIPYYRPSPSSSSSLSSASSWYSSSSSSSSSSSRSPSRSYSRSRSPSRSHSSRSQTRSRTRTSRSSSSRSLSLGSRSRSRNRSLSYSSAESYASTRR

B1: Rab5c (protein, UniProt P35278 1-216, looked up)
Ras-related protein Rab-5C: MAGRGGAARPNGPAAGNKICQFKLVLLGESAVGKSSLVLRFVKGQFHEYQESTIGAAFLTQTVCLDDTTVKFEIWDTAGQERYHSLAPMYYRGAQAAIVVYDITNTDTFARAKNWVKELQRQASPNIVIALAGNKADLASKRAVEFQEAQAYADDNSLLFMETSAKTAMNVNEIFMAIAKKLPKNEPQNAAGAPGRTRGVDLQESNPASRSQCCSN
B2: Wdr11 (protein, UniProt Q8K1X1 1-1223, looked up)
WD repeat-containing protein …: MLPYTVNFKVSARTLTGALNAHNKAAVDWGWQGLIAYGCHSLVVVIDSNTAQTLQVLEKHKADIVKVRWARENYHHNIGSPYCLRLASADVTGKIIVWDVAAGVAQCEIQEHVKPIQDVQWLWNQDASRDLLLAIHPPNYIVLWNADTGTKLWKKSYADNILSFSFDPFDPSHLTLLTSEGIVFISDFSPSKPPSGPGKKVYISSPHSSPAHNKLAAATGAKKALNKVKILITQEKPSADFVALNDCLQLAYLPSKRNHMLLLYPREILILDLEVNQTVGVIAIERTGVPFLQVIPCSQRDGLFCLHENGCITLRVRRSYNSICTTSNDEPDLDPVQELTYDLRSQCDAIRVTKTVRPFSMVCCPVNENAAALIVSDGRVMIWELKSAVCSRNARNSSGVSPLYSPVSFCGIPGGVLQNKLPDLSLDNMIGQSAIAGEEHPKGSILQEVHLKFLLTGLLSGLPSPQFAIRMCPPLTTKNIKTYQPLLAVGTSNGSVLVYHLTSGLLHKELSVHSCEVKGIEWTSLTSFLSFAASTPNNMGLVRNELQLVDLPTGRSTAFRGDRGNDESPIEMIKVSHLKQYLAVVFKDKPLELWDIRTCTLLREMSKSFPAITALEWSPSHNLKSLRKKQLATREAMARQTVVSDAELGAVESSVISLLQEAESKAELSQNISAREHFVFTDNDGQVYHLTVEGNSVKDSARIPPDGSMGSITCIAWKGDTLVLGDMDGNLNFWDLKARVSRGIPTHRSWVRKIRFAPGKGNQKLIAMYNDGAEVWDTKEVQMVSSLRSGRNVTFRILDVDWCTSDKVILASDDGCIRVLEMSMKSTCFRMDEQELVEPVWCPYLLVPRAALALKAFLLHQPWNGRYSLDISHIDYPENEEIKTLLQEQLHALSNDIKKLLLDPDFSLLQRCLLVSRLYGDESELHFWTVAAHYLHSLSQAKSGDTVVTKEGAPKDRLSNPLDICYDVLCENTYFQKFQLERVNLQEVKRSTYDHTRKCTDQLLLLGQTDRAVQLLLETSADNQHYYCDSLKACLVTTVTSSGPSQSTIKLVATNMIANGKLAEGVQLLCLIDKAADACRYLQTYGEWNRAAWLAKVRLNSEECADVLKRWVDHLCSPQVNQKSKALLVLLSLGCFVSVAETLHSMRYFDRAALFVEACLKYGAFEVSEDTEKLIAAIYADYARSLKSLGFRQGAVRFASKAGAAGRDLLNELGSTKEELTES
B3: Sfswap (protein, UniProt Q3USH5 1-945, looked up)
Splicing factor, suppressor …: MYGAGGGRAKPERKGGVKEEAGPGGTGTGGNRVELLVFGYACKLFRDDERALAQEQGQHLIPWMGDPKILIDRYDGRGHLHDLSAYDAEYATWNRDYQLSEEEARVEALCDEERYLALHTDLLEEEARQEEEYKRLSEALAEDGNYSAVGFTYGSDYYDPSEPTEEEEPSKQREKNEAENLEENEEPFIAPLGLSVPSDVELPPTAKMHAIIERTANFVCKQGAQFEIMLKAKQARNSQFDFLRFDHYLNPYYKFIQKAMKEGRYTVLAESKNEEKKKSGPTSDNEEEDDEEDGSYLHPSLFASKKSSRLEELMKPLKVVDPDHPLAALVRKAQADSSAPAPPTADGTPAQPSQVEYTADSTVAAMYYSYYMLPDGTYCLAPPPPGIDVATYYSTLPAGVTVSSSPGVTTTVPPPPGTTPPPPPTTAEPSSGVTSTTTTTSALAPVAIIPPPPDIQPVIDKLAEYVARNGLKFETSVRAKNDQRFEFLQPWHQYNAYYEFKKQFFLQKEGGGSTQAASTAEEAPTETAVEESGEAGEDGAPEGMAETGGRGSGKKEAGSSKSTVDGKLVKASFAPISFAIKAKENDLLPLEKNRVKLDDDSEEDEESRECQESTSSVANPSPAAAPPSVAVEEKKPQLTQEELEAKQAKQKLEDRLAAAAREKLAQASKESKEKQLQAERKRKAALFLQTLKNPLPEAEVGKLEESTFGVEDTGVMPCPLLVGGRTLPILEGKPPERPSNRCRDPPREEEREKKKKKHKKRSRTRSRSPKYHSSSKPRSRSHSKAKHSLPSAYRTVRRSRSRSRSPRRRAHSPERRREERSVPTAYRMSGSPGVSRKRTRSRSPHEKKKKRRSRSRTKAKARSQSTSPSKQAAQRPSAHSAHSASISPVESRGSSQERSRGVSQEKDGQISSAIVSSVQSKITQDLMAKVRAMLAASKNLQTSAS
B4: Grpel1 (protein, UniProt Q99LP6 28-217, looked up)
GrpE protein homolog 1, …: CTATKQKNNGQNLDEDLGHCEPKTDPPSADKTLLEEKAKLEEQLRETMEKYKRALADTENLRQRSQKLVEEAKLYGIQGFCKDLLEVADILEKATQSVPKEEISNNNPHLKSLYEGLVMTEVQIQKVFTKHGLLRLDPIGAKFDPYEHEALFHTPVEGKEPGTVALVSKVGYKLHGRTLRPALVGVVKDA
B5: Fam76b (protein, UniProt Q80XP8 2-339, looked up)
Protein FAM76B: AASALYACTKCTQRYPFEELSQGQQLCKECRIAHPIVKCTYCRSEFQQESKTNTICKKCAQNVKQFGTPKPCQYCNIIAAFIGTKCQRCTNSEKKYGAPQTCEQCKQQCAFDRKEEGRRKVDGKLLCWLCTLSYKRVLQKTKEQRKSLGSSHSNSSSSSLTEKDQHHSKHHHHHHHHHHRHSSGHHKVSSLSPEQEQGLWKQSHKSSAAIQNETPKKKPKLESKPSNGDSSSINQSADSGGTDNFVLISQLKEEVMSLKRLLQQRDQTILEKDKKLTELKADFQYQESNLRTKMNSMEKAHKETVEQLQAKNRELLKQVAALSKGKKFDKSGSVLTSP

Target: T1, nSR100
Assay: AP-MS nSR100 interaction partners from mouse N2A cells (Table 5)
Format: binding
Conditions: for AvgP (average of the SAINT scores) / MaxP (maximal SAINT score): bait Srrm4; for FoldChange between the prey Avg spectra of the bait and control purifications: bait Srrm4, 0.1 added to prevent division by 0; for AvgSpec (average number of spectra per replicate): bait Srrm4, 2 replicates; for Spectra (number of spectra for the prey in the purification of the bait): AP-MS; for SpecSum: bait Srrm4, sum of spectra over 2 replicates
[1] = bait Srrm4, biological replicate 1 (first number of the cell)
[2] = bait Srrm4, biological replicate 2 (second number of the cell)

Text: By applying affinity purification coupled to mass-spectrometry (AP-MS), several interaction nSR100 partner proteins were detected that provide insight into mechanisms of post-translational regulation of nSR100 levels.

Molecule	AvgP (average of the SAINT scores)	MaxP (maximal SAINT score)	FoldChange between the prey Avg spectra of the bait and control purifications	AvgSpec (average number of spectra per replicate)	Spectra (number of spectra for the prey in the purification of the bait) [1]	Spectra (number of spectra for the prey in the purification of the bait) [2]	SpecSum
B1	0.97	0.99	25	2.5	3	2	5
B2	0.97	1	30	3	2	4	6
B3	0.97	0.99	25	2.5	2	3	5
B4	0.97	0.98	3.3	16.5	16	17	33
B5	0.98	1	35	3.5	2	5	7
